# Test results taken from US20100291540A1.
# How the values were obtained:
# [1] = biological target: starch binding domain derived from Aspergillus niger glucoamylase (AnSBD) (Aspergillus niger) (UniProt P69328); experiment: competition sandwich ELISA, 250 nM gp140 premixed with panel, AnSBD-coated plate; competes with the panel's HIV antigen
# [2] = biological target: starch binding domain derived from Rhizopus oryzae glucoamylase (RoSBD) (Rhizopus oryzae) (UniProt P07683); experiment: competition sandwich ELISA, 250 nM gp140 premixed with panel, RoSBD-coated plate; competes with the panel's HIV antigen
substance,measurement,setting,value
HIV1 gp140 antigen,inhibition rate,[1],40.1%
same,inhibition rate,[2],42.9%
